Measured values reported in article PMC10397247.
One block for each binder: values may come before it.

Key:
Experiment in all cases: two-hybrid library CCNG1;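 further: natural log of median RNA to DNA barcode read ratio; higher means stronger binding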
4H1831-bA = target: T1, 4H1831-bA
T1 chain: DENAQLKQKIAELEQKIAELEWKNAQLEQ

4H2586-bA = target: T2, 4H2586-bA
T2 chain: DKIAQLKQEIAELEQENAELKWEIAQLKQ

4H2627-bA = target: T3, 4H2627-bA
T3 chain: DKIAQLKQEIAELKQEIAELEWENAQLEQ

4H2673-bA = target: T4, 4H2673-bA
T4 chain: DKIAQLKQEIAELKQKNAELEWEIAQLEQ

4H2697-bA = target: T5, 4H2697-bA
T5 chain: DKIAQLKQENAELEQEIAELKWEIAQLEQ

4H2702-bA = target: T6, 4H2702-bA
T6 chain: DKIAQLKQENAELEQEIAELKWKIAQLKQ

4H3010-bA = target: T7, 4H3010-bA
T7 chain: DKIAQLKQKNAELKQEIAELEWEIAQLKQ

4H3112-bA = target: T8, 4H3112-bA
T8 chain: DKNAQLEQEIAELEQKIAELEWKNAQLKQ

4H3112-bH = target: T9, 4H3112-bH
T9 chain: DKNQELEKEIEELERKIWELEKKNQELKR

4H3427-bA = target: T10, 4H3427-bA
T10 chain: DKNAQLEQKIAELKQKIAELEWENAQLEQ

4H346-bA = target: T11, 4H346-bA
T11 chain: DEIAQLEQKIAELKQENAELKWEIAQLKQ

4H3926-bA = target: T12, 4H3926-bA
T12 chain: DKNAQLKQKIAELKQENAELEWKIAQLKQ

4H4073-bA = target: T13, 4H4073-bA
T13 chain: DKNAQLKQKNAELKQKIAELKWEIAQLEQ

4H457-bA = target: T14, 4H457-bA
T14 chain: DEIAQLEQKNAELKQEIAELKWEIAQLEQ

4H575-bA = target: T15, 4H575-bA
T15 chain: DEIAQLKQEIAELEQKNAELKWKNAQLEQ

4H683-bA = target: T16, 4H683-bA
T16 chain: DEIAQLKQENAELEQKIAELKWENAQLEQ

4H754-bA = target: T17, 4H754-bA
T17 chain: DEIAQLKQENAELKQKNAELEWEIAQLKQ

4H780-bA = target: T18, 4H780-bA
T18 chain: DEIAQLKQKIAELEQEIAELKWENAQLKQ

4H797-bA = target: T19, 4H797-bA
T19 chain: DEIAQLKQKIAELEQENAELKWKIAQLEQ

4H855-bA = target: T20, 4H855-bA
T20 chain: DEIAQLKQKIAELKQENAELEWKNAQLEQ

4H918-bA = target: T21, 4H918-bA
T21 chain: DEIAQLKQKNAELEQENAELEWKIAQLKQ

4H953-bA = target: T22, 4H953-bA
T22 chain: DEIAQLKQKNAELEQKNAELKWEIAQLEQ

4H968-bA = target: T23, 4H968-bA
T23 chain: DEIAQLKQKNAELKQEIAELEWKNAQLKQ

4H3601-bH = target: T24, 4H3601-bH
T24 chain: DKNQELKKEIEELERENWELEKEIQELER

4H3907-bH = target: T25, 4H3907-bH
T25 chain: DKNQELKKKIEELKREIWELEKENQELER

4H4038-bH = target: T26, 4H4038-bH
T26 chain: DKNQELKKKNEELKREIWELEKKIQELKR

4H797-bH = target: T27, 4H797-bH
T27 chain: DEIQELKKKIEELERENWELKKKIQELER

4H72-bN = target: T28, 4H72-bN
T28 chain: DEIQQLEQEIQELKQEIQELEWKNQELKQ

4H754-bN = target: T29, 4H754-bN
T29 chain: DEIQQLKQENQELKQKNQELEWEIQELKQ

4H797-bN = target: T30, 4H797-bN
T30 chain: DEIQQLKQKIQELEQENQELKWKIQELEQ

4H883-bN = target: T31, 4H883-bN
T31 chain: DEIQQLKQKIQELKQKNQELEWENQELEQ

4H908-bN = target: T32, 4H908-bN
T32 chain: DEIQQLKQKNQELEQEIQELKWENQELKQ

4H918-bN = target: T33, 4H918-bN
T33 chain: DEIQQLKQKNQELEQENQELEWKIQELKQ

4H953-bN = target: T34, 4H953-bN
T34 chain: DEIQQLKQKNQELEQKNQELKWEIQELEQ

4H967-bN = target: T35, 4H967-bN
T35 chain: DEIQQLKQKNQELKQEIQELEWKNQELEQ

O13-bP = target: T36, O13-bP
T36 chain: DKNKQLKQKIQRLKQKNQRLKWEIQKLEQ

4H932-bA = target: T37, 4H932-bA
T37 chain: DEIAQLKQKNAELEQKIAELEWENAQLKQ

4H949-bA = target: T38, 4H949-bA
T38 chain: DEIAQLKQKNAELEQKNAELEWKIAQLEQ

P1bHq = target: T39, P1bHq
T39 chain: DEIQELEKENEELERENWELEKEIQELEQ

4H3041-bN = target: T40, 4H3041-bN
T40 chain: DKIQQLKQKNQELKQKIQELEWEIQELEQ

4H3297-bN = target: T41, 4H3297-bN
T41 chain: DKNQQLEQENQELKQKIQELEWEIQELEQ

4H3364-bN = target: T42, 4H3364-bN
T42 chain: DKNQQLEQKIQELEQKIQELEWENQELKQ

4H3381-bN = target: T43, 4H3381-bN
T43 chain: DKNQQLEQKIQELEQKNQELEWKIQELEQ

4H349-bN = target: T44, 4H349-bN
T44 chain: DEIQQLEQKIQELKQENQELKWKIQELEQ

4H56-bN = target: T45, 4H56-bN
T45 chain: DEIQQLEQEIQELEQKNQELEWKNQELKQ

4H730-bN = target: T46, 4H730-bN
T46 chain: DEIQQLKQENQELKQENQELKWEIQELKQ

4H796-bN = target: T47, 4H796-bN
T47 chain: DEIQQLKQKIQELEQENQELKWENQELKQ

4H932-bN = target: T48, 4H932-bN
T48 chain: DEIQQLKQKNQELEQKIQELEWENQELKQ

4H949-bN = target: T49, 4H949-bN
T49 chain: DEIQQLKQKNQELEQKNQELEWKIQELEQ

interaction score (4H1831-bA): 0.937 | interaction score (4H2586-bA): -0.446 | interaction score (4H2627-bA): 1.11 | interaction score (4H2673-bA): 0.133 | interaction score (4H2697-bA): -1.55 | interaction score (4H2702-bA): -0.589 | interaction score (4H3010-bA): 0.376 | interaction score (4H3112-bA): 0.716 | interaction score (4H3112-bH): -0.386 | interaction score (4H3427-bA): 0.113 | interaction score (4H346-bA): -0.307 | interaction score (4H3926-bA): -0.904 | interaction score (4H4073-bA): -0.475 | interaction score (4H457-bA): -0.519 | interaction score (4H575-bA): -0.581 | interaction score (4H683-bA): -1.5 | interaction score (4H754-bA): -0.649 | interaction score (4H780-bA): -1.1 | interaction score (4H797-bA): -0.44 | interaction score (4H855-bA): 0.246 | interaction score (4H918-bA): -0.817 | interaction score (4H953-bA): -0.824 | interaction score (4H968-bA): -0.46
Binder: DENAQLKQKIAELEQKIAELEWKNAQLEQ [4H1831-bA]

interaction score (4H3601-bH): -1.34 | interaction score (4H3907-bH): -0.759 | interaction score (4H4038-bH): -1.44 | interaction score (4H797-bH): -1.38
Binder: DKNQELKKEIEELERENWELEKEIQELER [4H3601-bH]

interaction score (4H72-bN): 0.334 | interaction score (4H754-bN): -1.48 | interaction score (4H797-bN): 0.632 | interaction score (4H883-bN): 0.619 | interaction score (4H908-bN): -0.234 | interaction score (4H918-bN): 0.713 | interaction score (4H953-bN): -0.727 | interaction score (4H967-bN): -0.25 | interaction score (O13-bP): -0.283
Binder: DEIQQLEQEIQELKQEIQELEWKNQELKQ [4H72-bN]

interaction score (4H932-bA): 0.694 | interaction score (4H949-bA): -0.925 | interaction score (P1bHq): -0.886
Binder: DEIAQLKQKNAELEQKIAELEWENAQLKQ [4H932-bA]

interaction score (4H3041-bN): 0.754 | interaction score (4H3297-bN): -2.23 | interaction score (4H3364-bN): -1.42 | interaction score (4H3381-bN): -1.06 | interaction score (4H349-bN): -1.54 | interaction score (4H56-bN): -0.997 | interaction score (4H730-bN): -1.37 | interaction score (4H796-bN): -1.35 | interaction score (4H932-bN): -1.42 | interaction score (4H949-bN): -1.33 | interaction score (P1bHq): 0.154
Binder: DKIQQLKQKNQELKQKIQELEWEIQELEQ [4H3041-bN]
